# Results as given in patent publication US9803012B2, “Compositions and methods for regulating SAS1R” (UNIVERSITY OF VIRGINIA PATENT FOUNDATION, priority 2005, dated 2017).
# B1: human SLLP1: human sperm lysozyme-like protein 1 (SEQ ID NO:14) (protein, listed as Homo sapiens)
# chain: MVSALRGAPLIRVHSSPVSSPSVSGPRRLVSCLSSQSSALSQSGGGSTSAAGIEARSRALRRRWCPAGIMLLALVCLLSCLLPSSEAKLYGRCELARVLHDFGLDGYRGYSLADWVCLAYFTSGFNAAALDYEADGSTNNGIFQINSRRWCSNLTPNVPNVCRMYCSDLLNPNLKDTVICAMKITQEPQGLGYWEAWRHHCQGKDLTEWVDGCDF
# B2: human SLLP2: recombinant human SLLP2 expressed in E. coli (SEQ ID NO:18) (protein, listed as Homo sapiens)
# chain: MKAWGTVVVTLATLMVVTVDAKIYERCELAARLERAGLNGYKGYGVGDWLCMAHYESGFDTAFVDHNPDGSSEYGIFQLNSAWWCDNGITPTKNLCHMDCHDLLNRHILDDIRCAKQIVSSQNGLSAWTSWRLHCSGHDLSEWLKGCDMHVKIDPKIHP
# B3: rSAS1R: mature recombinant mouse SAS1R (414 residues; SEQ ID NO:6) expressed in E. coli with histidine tag, affinity purified (protein, listed as Mus musculus)
# chain: MGAPSASRCSGVCSTSVPEGFTPEGSPVFQDKDIPAINQGLISEETPESSFLVEGDIIRPSPFRLLSVTNNKWPKGVGGFVEIPFLLSRKYDELSRRVIMDAFAEFERFTCIRFVAYHGQRDFVSILPMAGCFSGVGRSGGMQVVSLAPTCLRKGRGIVLHELMHVLGFWHEHSRADRDRYIQVNWNEILPGFEINFIKSRSTNMLVPYDYSSVMHYGRFAFSWRGQPTIIPLWTSSVHIGQRWNLSTSDITRVCRLYNCSRSVPDSHGRGFEAQSDGSSLTPASISRLQRLLEALSEESGSSAPSGSRTGGQSIAGLGNSQQGWEHPPQSTFSVGALARPPQMLADASKSGPGAGADSLSLEQFQLAQAPTVPLALFPEARDKPAPIQDAFERLAPLPGGCAPGSHIREVPRD
# modifications: His tag
# Legend:
# oolemma = conditions: sea urchin; cited from earlier work
# mouse sperm-egg fusion = conditions: cited from earlier work
# Metaphase II eggs = experiment: Egg labeling by indirect immunofluorescence; type: cell-based, mouse; conditions: 100 μg/ml protein, 45 min
# Experimental: Metaphase II eggs were obtained as previously described (Coonrod et al, 1999) and incubated with 5% NGS/media for 30 min. Oocytes were washed five times in TYH medium and incubated with 100 μg/ml recmSLLP1 or 100 μg/ml lysozymes for 45 min at 37° C. and 5% CO2. Oocytes were washed five times and incubated with guinea pig anti-recmSLLP1 polyclonal antibody (1:50), sheep anti-human lysozyme (1:25) or rabbit anti-chicken lysozyme (1:400) in 5% NGS/media for 1 h at 37° C. and 5% CO2. Oocytes were washed five times and incubated with donkey anti-guinea pig/Texas Red antibody (1:200) or goat anti-guinea pig/FITC antisera 1:200), donkey anti-sheep and goat anti-rabbit FITC-labeled secondary antibody (1:200) (Jackson ImmunoResearch), respectively in 5% NGS/media for 1 h at […] 37° C. and 5% CO2. Oocytes were washed and mounted in media onto glass slides and visualized under a Zeiss Standard 18 ultraviolet microscope. Images were captured by using MrGrab 1.0 (Carl Zeiss Vision GmbH, Germany).
# zona-free mouse eggs = experiment: In vitro fertilization with zona-free eggs (sperm-oolemma binding and fusion); type: cell-based; conditions: 25 μg of human SLLP1
# Experimental: For the sperm-oolemma binding assay, two cauda epididymides were placed in 900 μl drops of fertilization medium under paraffin oil for the dense mass of spermatozoa to flow freely for ˜15 min and then diluted at 1×10^6/ml for 3 h of capacitation. Cumulus oocyte complexes were placed in 200 μl drops of TYH medium under paraffin oil. Cumulus cells were removed by treating the oocytes for 3 min with 1 mg/ml hyaluronidase in TYH medium and then washed 8 times in 50 μl drops. Zona pellucidae were loosened by treating the oocytes with 10 μg/ml chymotrypsin in TYH media for 1 min and loosened zonae were removed by mechanical agitation using a pulled Pasteur pipette. The oocytes were then washed 10 times and allowed to recover from chymotrypsin treatment by incubating in TYH media for 3 h, following which, they were stained with 10 μg/ml Hoechst dye for 10 min, and then gently washed. […]
# To compare the effects of recmSLLP1 with human and chicken c lysozymes, spermatozoa were first incubated under standard capacitating conditions. Oocytes were pre-incubated for 45 min before insemination with recmSLLP1 (0.1 to 200 μg/ml) or with hSLLP1 (25 μg/ml) or with chicken or human lysozyme (50 μg/ml, 100 μg/ml). Untreated capacitated sperm were then added to the incubation drops containing the treated eggs with a final sperm concentration of 2.5×10^4/ml. Thus, in all the experiments performed the sera, the recombinant protein, or the lysozyme was present in the incubation droplet during gamete interaction. After 30 min of gamete co-incubation, oocytes were gently washed 5 times in TYH medium and placed between a microscope slide and an elevated coverslip and visualized at 160×. Binding to the oocyte was scored by counting the number of bound spermatozoa per oocyte using phase contrast. Fusion with the egg was scored by counting the number of decondensed sperm heads within each oocyte using fluorescence microscopy.
# mouse eggs = experiment: Binding of SLLP2 to mouse eggs; type: cell-based; conditions: human SLLP2
# Experimental: To analyze the biologic activity of human SLLP2, it was determined whether it would bind to an egg, in this case, a mouse egg.
# For comparison to the use of human sperm SLLP2, an experiment was performed to determine if purified mouse SLLP2 would bind to Zona intact mouse eggs. […] Competitive assays were then performed to determine whether the addition of recombinant mouse SLLP2 to a mixture of mouse sperm and mouse eggs could inhibit binding of sperm and eggs. Various amounts of recombinant mouse SLLP2 were added (5, 25, 50, 100, and 200 μg/ml) and the number of sperm bound per egg was determined.
# [1] = target: T1, fluorescent tagged synthetic peptide (Mus musculus, UniProt Q6HA09); experiment: Protease activity assay of SAS1R (EnzChek Peptidase/Protease Assay Kit, FRET); type: biochemical
# T1 construct: The mature rSAS1R (414 residues); 20 vector-encoded residues including His6 (pET-28b) (N); made in house; host or cells: E. coli BL21DE3
# T1 sequence (Q6HA09 22-435): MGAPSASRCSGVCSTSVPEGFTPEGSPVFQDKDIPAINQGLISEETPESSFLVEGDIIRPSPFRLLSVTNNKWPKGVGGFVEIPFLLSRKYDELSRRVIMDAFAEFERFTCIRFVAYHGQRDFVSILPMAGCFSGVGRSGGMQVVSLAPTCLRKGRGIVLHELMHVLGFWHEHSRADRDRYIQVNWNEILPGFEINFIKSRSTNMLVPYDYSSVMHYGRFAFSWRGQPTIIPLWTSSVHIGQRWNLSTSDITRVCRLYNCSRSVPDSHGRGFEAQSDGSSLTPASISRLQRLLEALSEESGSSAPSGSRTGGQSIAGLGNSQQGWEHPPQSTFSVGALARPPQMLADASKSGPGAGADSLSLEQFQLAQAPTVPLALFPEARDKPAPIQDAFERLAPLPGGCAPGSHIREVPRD
# Experimental: Protease activity was assayed with purified soluble rSAS1R using the EnzChek® Peptidase/Protease Assay Kit.
# Protease activity was assayed in serial dilutions (0-2000 ng) of purified bacterial recombinant SAS1R using the EnzChek® Peptidase/Protease Assay Kit (Molecular Probes, OR), which provides a FRET (fluorescence resonance energy transfer)-based method for quantitation of a wide range of protease activities. This assay was performed in 100 μl size reactions and repeated three times with varying concentrations of recombinant SAS1R. Fluorescence was measured over 24 h following the manufacturer's protocol. Protease activity of recombinant SAS1R appeared within 1 h and increased within 24 h. SLLP1 was used as a negative control. The assay method was validated using purified trypsin as a positive control (Sigma, MO).
# cumulus intact oocytes = experiment: Mouse in vitro fertilization, capacitated sperm pre-incubated with rSAS1R; type: cell-based
# Experimental: Epididymal sperm from sexually mature and oocytes from 6 to 8 weeks old ICR mice were used for gamete studies and IVF. Capacitated sperm in presence or absence of rSAS1R were used to inseminate cumulus intact oocytes and fertilization was scored by counting two cell embryos.
# ICR mice were used in all experiments. Suspensions of epididymal spermatozoa from sexually mature male mice were prepared for insemination of isolated oocytes. Oocytes were obtained from 6 to 8 weeks old females superovulated with 10 IU PMSG and 10 IU hCG, injected intraperitoneally at 48 h intervals. Females were killed 16 h after hCG injection, and both oviducts were immediately removed, placed in mineral oil, and flushed to recover oocytes.
# In vitro fertilization was conducted with cumulus intact oocytes using sperm dispersed from cauda epididymides. Sperm were placed for 5 min in 200 μl drops of fertilization medium under paraffin oil. […] The eggs were then placed in 5 μl of fertilization medium between a microscope slide and an elevated coverslip, and visualized at 160× using light and fluorescence microscopy (Zeiss Axioplan). Two-cell embryos were scored as fertilized, while one-celled oocytes were scored as unfertilized.
# capacitated sperm = experiment: Co-localization of rSAS1R binding sites and SLLP1 on sperm; type: cell-based, mouse; conditions: capacitated sperm incubated with rSAS1R, probed with both antibodies
# Experimental: Zona intact-, zona free oocytes, early embryos and sperm were collected as before (10), blocked and probed with 1st and 2nd antibody and imaged with UV-microscopy. For co-LC studies, gametes were incubated with soluble rSAS1R or rSLLP1, washed, probed with 1st- and 2nd antibodies and imaged with UV-microscopy.
# Similarly capacitated mouse sperm were also examined for co-localization of SAS1R binding sites and SLLP1 localization. Sperms were incubated with increasing concentrations (0-100 μg/ml) of rSAS1R for 1 h, then sperm were washed two times at 700 g for 8 min and droplets were made on glass slide. These droplets were air-dried for 30 min and rehydrated again with 20 μl of PBS for 5 min. Now in the droplets, sperm were fixed with 20 μl of 4% paraformaldehyde for 25 min and then washed with 20 μl of PBS thrice for 5 min each. Now the droplets were blocked with 10% NGS for 30 min and incubated with guinea pig anti-rSAS1R polyclonal antibody (1:200) and rat anti-rSLLP1 polyclonal antibody (1:200) simultaneously, in 0.1% NGS/media for 1 h at 37° C. and 5% CO2. All the droplets were washed three times and incubated with goat anti-guinea pig/Cy3 red antibody (1:200, Jackson ImmunoResearch, PA) and goat anti-rat/FITC green antibody (1:200, Jackson ImmunoResearch, PA), in 0.1% NGS/media for 1 h at 37° C. and 5% CO2. Sperms were washed and mounted in media on glass slides. […]
molecule,measurement,setting,value
"c1cnc2c(c1)ccc1cccnc12 [1,10-phenanthroline]",binding of acrosome reacted sperm to the oolemma,oolemma,no effect
same,block of membrane fusion,oolemma,95%
same,sperm-egg binding,mouse sperm-egg fusion,without reducing sperm-egg binding
same,sperm-egg fusion,mouse sperm-egg fusion,inhibited mouse sperm-egg fusion
chicken lysozyme: conventional chicken c lysozyme used as comparator,fluorescence of mouse oocytes after incubation with protein and respective antibody,Metaphase II eggs,did not show any fluorescence
human lysozyme: conventional human c lysozyme used as comparator,fluorescence of mouse oocytes after incubation with protein and respective antibody,Metaphase II eggs,did not show any fluorescence
B1,sperm-egg binding and fusion,zona-free mouse eggs,maximally inhibited
B2,binding to mouse eggs (cross-species),mouse eggs,can indeed bind with mouse eggs
B3,proteolytic activity,"[1]; 200-2000 ng rSAS1R in 100 μl assay, FRET, up to 24 h",dose dependent proteolytic activity
same,time until protease activity appeared,[1]; fluorescence measured over 24 h,≤ 1 h
same,reduction in fertilization,cumulus intact oocytes; 10 μg/ml rSAS1R,not statistically significant
same,reduction in fertilization,"cumulus intact oocytes; 25 μg/ml rSAS1R, P≦0.03, two cell embryos scored",89%
same,binding to sperm,capacitated sperm,binds to acrosome of sperm and co-localizes with native SLLP1
